Here are results for one sequence from patent US20260218140.

In the data set the target is T1, 5-270 TNA polymerase (synthetic construct (chimera of Thermococcus/Pyrococcus B-family polymerases)) (UniProt P56689).
T1 sequence: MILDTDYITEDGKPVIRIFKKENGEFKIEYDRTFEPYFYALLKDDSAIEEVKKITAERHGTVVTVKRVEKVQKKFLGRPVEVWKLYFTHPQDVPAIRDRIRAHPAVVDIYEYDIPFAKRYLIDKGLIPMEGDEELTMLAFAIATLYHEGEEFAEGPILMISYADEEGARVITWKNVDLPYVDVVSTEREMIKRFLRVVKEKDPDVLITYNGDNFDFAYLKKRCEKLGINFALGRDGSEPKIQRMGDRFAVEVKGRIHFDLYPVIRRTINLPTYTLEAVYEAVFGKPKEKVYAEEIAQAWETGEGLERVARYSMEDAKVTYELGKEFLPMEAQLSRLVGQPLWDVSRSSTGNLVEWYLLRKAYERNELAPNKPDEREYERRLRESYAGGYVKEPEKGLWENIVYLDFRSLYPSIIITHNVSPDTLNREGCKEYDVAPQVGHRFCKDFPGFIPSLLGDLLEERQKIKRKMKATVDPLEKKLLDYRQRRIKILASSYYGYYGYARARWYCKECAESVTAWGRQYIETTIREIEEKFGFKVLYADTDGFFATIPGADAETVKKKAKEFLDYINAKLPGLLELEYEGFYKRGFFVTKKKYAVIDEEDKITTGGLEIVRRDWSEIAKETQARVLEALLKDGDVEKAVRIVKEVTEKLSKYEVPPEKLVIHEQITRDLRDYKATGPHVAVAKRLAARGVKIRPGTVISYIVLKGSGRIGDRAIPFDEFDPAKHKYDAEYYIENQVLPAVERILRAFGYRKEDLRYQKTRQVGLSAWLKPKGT
The following applies: TNA primer extension; ~2-fold figure is from text on the clone screen.

With “GTCCCCTTGGGGATACCACC / TCGTTCTCGGACGGAGAGATATTGAANGGTGGTATCCCCAAGGGGAC [PBS8 primer / L30.5 random library template]”, the binding signal (fold vs Kod-RSGA) is 2.
